In the supplement of paper PMC11811203:

B1: THAP1; numbered along this chain (parent)
chain: MVQSCSAYGCKNRYDKDKPVSFHKFPLTRPSLCKEWEAAVRRKNFKPTKYSSICSEHFTPDCFKRECNNKLLKENAVPTIFLCTEPHDKKEDLLEPQEQLPPPPLPPPVSQVDAAIGLLMPPLQTPVNLSVFCDHNYTVEDTMHQRKRIHQLEQQVEKLRKKLKTAQQRCRRQERQLEKLKEVVHFQKEKDDVSERGYVILPNDYFEIVEVPA

Variants of: B1
Assay: THAP1 transcriptional activity (GFP+/GFP- enrichment relative to wild-type constructs) (ratio to WT); higher = more THAP1 activity (PSMB5 reporter activation)
Settings: with PSMB5 promoter-GFP reporter
Summary of the method: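 In duplicate, a lentivirus-delivered library with every residue from 2–213 of human THAP1 changed to all 20 amino acids was introduced at MOI ~0.3 into THAP1-knockout HEK-293T cells carrying endogenous PSMB5 tagged by mClover3 knock-in. Five days on, BFP+ cells were binned as GFP-dim or GFP-bright, and Illumina sequencing of genomic DNA amplicons counted each variant. Activity is the bright/dim read fold change, averaged over replicates and scaled to the mean of wild-type synonymous constructs.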

THAP1 transcriptional activity, by site and new letter:
T79: K 0.278 | S 0.71 | L 0.628 | H 0.293 | W 0.281 | M 0.254 | N 0.622 | A 0.438 | I 0.861 | V 0.326 | D 0.228 | G 0.301 | P 0.18 | Y 0.151 | Q 0.296 | C 0.183 | E 0.254
H87: V 1.56 | W 1.17 | T 2.56 | F 2.09 | M 2.74 | S 2.01 | R 1.11 | Y 1.16 | N 2.68 | C 1.84 | E 2.22 | K 1.13 | A 1.39 | P 3.55
D88: E 1.04 | H 0.413 | C 0.815 | F 0.918 | A 0.554
T84: E 4.49 | L 1.48 | H 0.92 | P 1.44 | M 1.23 | G 0.785 | C 0.907 | Y 1.82 | D 0.604 | Q 1.65 | K 2.57 | S 0.852 | F 1.21 | I 0.739 | R 1.39 | W 1.97
C83: T 1.67 | P 0.676 | G 1.18 | K 1 | M 0.953 | D 2.06 | N 1.13 | Y 2.11 | V 1.41 | Q 3.29 | F 1.21 | I 1.18 | S 1.05 | H 2.25 | R 1.54 | E 0.913
P78: V 0.191 | Q 0.241 | R 0.156 | F 0.267 | T 0.283 | C 0.419 | M 0.495 | L 0.161 | D 0.183 | E 0.463 | Y 0.488 | G 0.102 | N 0.269 | I 0.211
I80: D 0.29 | A 0.266 | C 0.239 | P 0.235 | F 0.463 | S 0.272 | H 0.323 | M 0.484 | V 0.963 | G 0.55 | R 0.963 | L 0.606 | T 0.298 | Q 0.628 | N 0.429 | W 0.268 | E 0.459
P86: I 2.01 | M 2.06 | R 0.766 | W 0.533 | F 0.921 | L 0.608 | N 0.592 | H 0.865 | K 0.623 | S 0.97 | T 0.609 | G 0.464 | Y 0.685 | V 1.04 | A 0.874 | E 2.07 | C 0.542
E85: R 0.558 | F 0.389 | P 1.01 | I 1.04 | G 1.14 | A 0.937 | V 0.702 | H 0.704 | T 0.594 | Q 1.16 | Y 0.792 | D 0.708 | C 0.285 | W 0.155 | L 0.328 | M 0.346 | S 1.35
L82: H 1.27 | V 1.71 | M 0.668 | K 0.792 | G 1.31 | R 0.825 | W 2.23 | E 1.33 | N 1.88 | D 1.34 | Y 1.46 | A 1.84 | P 2.38 | S 0.94 | Q 1.59 | T 2.19 | C 0.521
F81: I 0.536 | T 0.207 | C 0.223 | V 0.312 | N 0.75 | E 0.405 | D 0.125 | S 0.443 | G 0.402 | L 0.224 | Q 0.206 | R 0.298 | H 0.525 | M 0.341 | P 0.275 | A 0.367 | Y 0.214
